{"source": "paper doi:10.1101/2021.06.06.447241", "about": "(bioRxiv, 2021)", "binders": {"B1": {"name": "Ydj1 (Hsp40) (natural protein)", "chain": "MVKETKFYDILGVPVTATDVEIKKAYRKCALKYHPDKNPSEEAAEKFKEASAAYEILSDPEKRDIYDQFGEDGLSGAGGAGGFPGGGFGFGDDIFSQFFGAGGAQRPRGPQRGKDIKHEISASLEELYKGRTAKLALNKQILCKECEGRGGKKGAVKKCTSCNGQGIKFVTRQMGPMIQRFQTECDVCHGTGDIIDPKDRCKSCNGKKVENERKILEVHVEPGMKDGQRIVFKGEADQAPDVIPGDVVFIVSERPHKSFKRDGDDLVYEAEIDLLTAIAGGEFALEHVSGDWLKVGIVPGEVIAPGMRKVIEGKGMPIPKYGGYGNLIIKFTIKFPENHFTSEENLKKLEEILPPRIVPAIPKKATVDECVLADFDPAKYNRTRASRGGANYDSDEEEQGGEGVQCASQ"}}, "target": "Ssa1 (Hsp70) (Saccharomyces cerevisiae, UniProt P10591 1-642)", "sequence (P10591 whole entry)": "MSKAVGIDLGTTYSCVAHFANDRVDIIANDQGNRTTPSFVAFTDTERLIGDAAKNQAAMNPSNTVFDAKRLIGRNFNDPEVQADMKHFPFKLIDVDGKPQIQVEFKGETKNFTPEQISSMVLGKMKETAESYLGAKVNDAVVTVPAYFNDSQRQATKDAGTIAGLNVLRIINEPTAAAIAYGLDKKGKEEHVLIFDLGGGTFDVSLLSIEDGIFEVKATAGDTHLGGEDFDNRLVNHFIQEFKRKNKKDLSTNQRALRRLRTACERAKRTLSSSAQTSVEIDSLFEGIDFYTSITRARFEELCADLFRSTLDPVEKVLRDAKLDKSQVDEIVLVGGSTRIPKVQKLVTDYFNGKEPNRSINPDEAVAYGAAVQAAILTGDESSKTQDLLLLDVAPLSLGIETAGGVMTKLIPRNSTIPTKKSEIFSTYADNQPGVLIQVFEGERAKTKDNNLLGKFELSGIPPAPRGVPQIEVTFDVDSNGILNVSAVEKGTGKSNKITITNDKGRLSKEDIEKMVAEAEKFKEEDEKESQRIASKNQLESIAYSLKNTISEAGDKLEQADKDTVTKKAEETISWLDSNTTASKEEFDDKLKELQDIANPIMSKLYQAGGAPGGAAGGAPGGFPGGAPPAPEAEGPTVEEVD", "assay": "cross-linking", "data": [{"binder": "B1", "values": [{"measurement": "binding result", "value": "binds"}]}]}
